Laboratory results published in the Immune Epitope Database (IEDB).

Legend:
Test in all cases: IEDB peptide-MHC binding, purified MHC/competitive/radioactivity; ≥ and ≤ were set here for values at or beyond the usual limits of such assays
HLA-A*02:01 = target: HLA-A*02:01
HLA-A*02:02 = target: HLA-A*02:02
HLA-A*02:03 = target: HLA-A*02:03
HLA-A*02:06 = target: HLA-A*02:06
HLA-A*68:02 = target: HLA-A*68:02
[1] = source organism: Mammarenavirus guanaritoense
[2] = source organism: Vaccinia virus WR
[3] = source organism: Mammarenavirus choriomeningitidis
[4] = source organism: Hepacivirus hominis
[5] = source organism: Mammarenavirus lassaense

Sequence	IC50 (HLA-A*02:01; [2]) [nM]	IC50 (HLA-A*02:02; [2]) [nM]	IC50 (HLA-A*02:03; [2]) [nM]	IC50 (HLA-A*02:06; [2]) [nM]	IC50 (HLA-A*68:02; [2]) [nM]	also measured
TSVDLNAPV	–	–	–	–	–	IC50 (HLA-A*02:01; [1]): 464 nM; IC50 (HLA-A*02:02; [1]): 65 nM; IC50 (HLA-A*02:03; [1]): 841 nM; IC50 (HLA-A*02:06; [1]): 26 nM; IC50 (HLA-A*68:02; [1]): 0.26 nM
VTLFIDRGSI	1500	3830	2250	3010	14	–
AIMTRCLAV	–	–	–	–	–	IC50 (HLA-A*02:01; source organism: SARS-CoV1): 5.9 nM; IC50 (HLA-A*02:02; source organism: SARS-CoV1): 51 nM; IC50 (HLA-A*02:03; source organism: SARS-CoV1): 15 nM; IC50 (HLA-A*02:06; source organism: SARS-CoV1): 27 nM; IC50 (HLA-A*68:02; source organism: SARS-CoV1): 1300 nM
DLNIFMTLV	1120	1910	556	2190	192	–
LLTDTIESA	25	17	11	5.9	1240	–
SISSVLTIL	26	1.2	4	110	16	–
IMDKEQLLKI	890	311	288	1340	3240	–
RNHLRDLMGV	–	–	–	–	–	IC50 (HLA-A*02:01; [3]): 113 nM; IC50 (HLA-A*02:02; [3]): 428 nM; IC50 (HLA-A*02:03; [3]): 733 nM; IC50 (HLA-A*02:06; [3]): 107 nM; IC50 (HLA-A*68:02; [3]): 2820 nM
NTDHPLSINV	307	388	583	1.6	0.67	–
TIAHINTLI	255	21	20	571	129	–
VVHGYFTEV	–	–	–	–	–	IC50 (HLA-A*02:01; source organism: SARS-CoV1): 15 nM; IC50 (HLA-A*02:02; source organism: SARS-CoV1): 17 nM; IC50 (HLA-A*02:03; source organism: SARS-CoV1): 3.3 nM; IC50 (HLA-A*02:06; source organism: SARS-CoV1): 2.6 nM; IC50 (HLA-A*68:02; source organism: SARS-CoV1): 24 nM
YLMCLSPLMA	–	–	–	–	–	IC50 (HLA-A*02:01; source organism: SARS-CoV1): 0.65 nM; IC50 (HLA-A*02:02; source organism: SARS-CoV1): 0.24 nM; IC50 (HLA-A*02:03; source organism: SARS-CoV1): 0.13 nM; IC50 (HLA-A*02:06; source organism: SARS-CoV1): 1.3 nM; IC50 (HLA-A*68:02; source organism: SARS-CoV1): 166 nM
SISGVLWTV	–	–	–	–	–	IC50 (HLA-A*02:01; [4]): 11 nM; IC50 (HLA-A*02:02; [4]): 8.8 nM; IC50 (HLA-A*02:03; [4]): 18 nM; IC50 (HLA-A*02:06; [4]): 53 nM; IC50 (HLA-A*68:02; [4]): 5.5 nM
ITTLLNETA	635	414	936	596	70	–
NVISKIYTL	147	147	97	1.7	4.6	–
GIFVDTMSI	3020	2880	936	1620	3980	–
WLGAAITLVV	123	20	78	1840	264	–
NCLSLLLSV	–	–	–	–	–	IC50 (HLA-A*02:01; [5]): 73 nM; IC50 (HLA-A*02:02; [5]): 49 nM; IC50 (HLA-A*02:03; [5]): 437 nM; IC50 (HLA-A*02:06; [5]): 630 nM; IC50 (HLA-A*68:02; [5]): 1850 nM

Sequence	IC50 (HLA-A*02:01; [2]) [nM]	IC50 (HLA-A*02:02; [2]) [nM]	IC50 (HLA-A*02:03; [2]) [nM]	IC50 (HLA-A*02:06; [2]) [nM]	IC50 (HLA-A*68:02; [2]) [nM]	also measured
LATLNTLITL	848	139	338	323	1040	–
MILMTHFFSI	–	–	–	–	–	IC50 (HLA-A*02:01; [4]): 268 nM; IC50 (HLA-A*02:02; [4]): 420 nM; IC50 (HLA-A*02:03; [4]): 1120 nM; IC50 (HLA-A*02:06; [4]): 307 nM; IC50 (HLA-A*68:02; [4]): 883 nM
SIFVSTMPV	40	37	6.6	82	10	–
MLPESDLDKV	11	3.2	1770	4.4	196	–
AILHNIYRL	48	106	814	44	2570	–
NLYKVYNGI	451	408	62	817	1610	–
ILEYLYIMRV	30	74	83	134	1350	–
TIAGGVCYYL	0.24	0.036	34	4	0.13	–
ALYKGFQFI	–	–	–	–	–	IC50 (HLA-A*02:01; source organism: SARS-CoV1): 5.2 nM; IC50 (HLA-A*02:02; source organism: SARS-CoV1): 0.53 nM; IC50 (HLA-A*02:03; source organism: SARS-CoV1): 3.3 nM; IC50 (HLA-A*02:06; source organism: SARS-CoV1): 2 nM; IC50 (HLA-A*68:02; source organism: SARS-CoV1): 4450 nM
KTANNYETI	2240	37	38	329	1320	–
WLLWPVTLA	–	–	–	–	–	IC50 (HLA-A*02:01; source organism: SARS-CoV1): 6.8 nM; IC50 (HLA-A*02:02; source organism: SARS-CoV1): 12 nM; IC50 (HLA-A*02:03; source organism: SARS-CoV1): 1.2 nM; IC50 (HLA-A*02:06; source organism: SARS-CoV1): 17 nM; IC50 (HLA-A*68:02; source organism: SARS-CoV1): 151 nM
PLISILMIFI	836	433	769	2420	915	–
NTIDKSSPL	972	82	27	19	5.7	–
LMDCIIFES	–	–	–	–	–	IC50 (HLA-A*02:01; [3]): 99 nM; IC50 (HLA-A*02:02; [3]): 30 nM; IC50 (HLA-A*02:03; [3]): 825 nM; IC50 (HLA-A*02:06; [3]): 300 nM; IC50 (HLA-A*68:02; [3]): 425 nM
FMRFFTLGSI	–	–	–	–	–	IC50 (HLA-A*02:01; source organism: SARS-CoV1): 105 nM; IC50 (HLA-A*02:02; source organism: SARS-CoV1): 24 nM; IC50 (HLA-A*02:03; source organism: SARS-CoV1): 0.76 nM; IC50 (HLA-A*02:06; source organism: SARS-CoV1): 195 nM; IC50 (HLA-A*68:02; source organism: SARS-CoV1): 412 nM
MLNRVQILM	28	4.8	27	2560	4200	–
SVMNFIPII	1.7	13	6.3	2.8	58	–
